B1: Azoarcus group I ribozyme (parent)
chain: GUGCCUUGCGCCGGGAAACCACGCAAGGGAUGGUGUCAAAUUCGGCGAAACCUAAGCGCCCGCCCGGGCGUAUGGCAACGCCGAGCCAAGCUUCGGCGCCUGCGCCGAUGAAGGUGUAGAGACUAGACGGCACCCACCUAAGGCAAACGCUAUGGUGAAGGCAUAGUCCAGGGAGUGGCGAAAGUCACACAAACCGG

Variants of: B1
Assay: reverse-splicing fitness (ratio to wild type); higher = more active; in vitro selection; Mg2+ level not given
Summary of the method: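 An in vitro group I ribozyme library with randomized positions was T7-transcribed and gel-purified. In triplicate, 10 pmol RNA in EPPS pH 7.5 was reacted with 50 pmoles of a 30-nt RNA substrate for 1 h at 37 °C across several added MgCl2 levels (1–48 mM), then stopped with EDTA. Products were reverse transcribed from a substrate-complementary primer, PCR-amplified and sequenced (HiSeq 4000). Fitness is a variant's read proportion after selection over that before, normalised to wild type.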

Variant	reverse-splicing fitness
C82U A111G A120U C150U C169U U176C	0.00375
C82U A111G A120U C150U C169G U176A	0.00733
C82U A111G A120U C150U C169G U176G	0.00216
C82U A111G A120U C150U C169G U176C	0.00322
C82U A111G A145C C150U C169U U176A	0.0119
C82U A111G A145C C150U C169U U176G	0.00493
C82U A111G A145C C150U C169U U176C	0.00834
C82U A111G C150A C169U U176A	0.0155
C82U A111G C150A C169U U176C	0.0161
C82U A111G C150A C169U U176G	0.00684
C82U A111G A145G C150A C169U U176C	0.0151
C82U A111G A145G C150A C169U U176G	0.00552
C82U A111G A145G C150A C169U U176A	0.0135
C82U A111G A120U C150G C169G U176A	0.00513
C82U A111G A120U C150G C169G U176C	0.00318
C82U A111G A120U C150G C169G U176G	0.0022
C82U A111G A145U C150A U176C	0.0305
C82U A111G A145U C150A U176G	0.0097
C82U A111G A145U C150A U176A	0.0234
C82U A111G A145U C169G U176C	0.00876
C82U A111G A145U C169G U176A	0.00999
C82U A111G A145U C169G U176G	0.00474
C82U A111G A145U U176C	0.258
C82U A111G A145U U176G	0.0781

Variant	reverse-splicing fitness
C82U A111G A145U U176A	0.204
C82U A111G A145C C150A C169A U176C	0.00627
C82U A111G A145C C150A C169A U176A	0.0104
C82U A111G A145C C150A C169A U176G	0.00539
C82U A111G A145G C150G C169A U176A	0.012
C82U A111G A145G C150G C169A U176G	0.00737
C82U A111G A145G C150G C169A U176C	0.0111
C82U A111G A145U C150U C169G U176G	0.00489
C82U A111G A145U C150U C169G U176C	0.0105
C82U A111G A145U C150U C169G U176A	0.0118
C82U A111G C150U U176G	0.0286
C82U A111G C150U U176C	0.146
C82U A111G C150U U176A	0.102
C82U A111U A120C A145C C150A C169G U176A	0.0195
C82U A111U A120C A145C C150A C169G U176C	0.0108
C82U A111U A120C A145C C150A C169G U176G	0.00543
C82U A111G A145U C150A C169U U176C	0.012
C82U A111G A145U C150A C169U U176G	0.00567
C82U A111G A145U C150A C169U U176A	0.013
C82U A111G A145C C150A C169U U176G	0.00504
C82U A111G A145C C150A C169U U176A	0.0133
C82U A111G A145C C150A C169U U176C	0.00672
C82U A111G A145U C150G C169G U176G	0.00515
C82U A111G A145U C150G C169G U176C	0.00527

Variant	reverse-splicing fitness
C82U A111G A145U C150G C169G U176A	0.00668
C82U A111G A145U C150A C169A	0.0078
C82U A111G A145U C150A C169G	0.00745
C82U A111G A145U C150A C169U	0.0083
C82U A111U A120C A145C C150A	0.00788
C82U A111G A145U C150G C169U U176C	0.0112
C82U A111G A145U C150G C169U U176A	0.00755
C82U A111G A145U C150G C169U U176G	0.00472
C82U A111G C150A C169A	0.00969
C82U A111G C150A C169G	0.00918
C82U A111G C150A C169U	0.00979
C82U A111G C150G C169U	0.00811
C82U A111G C150G C169G	0.00675
C82U A111G C150G C169A	0.00812
C82U A111G C150U C169A U176C	0.0135
C82U A111G C150U C169A U176A	0.0145
C82U A111G C150U C169A U176G	0.00543
C82U A111G A145G C150A C169G U176C	0.0236
C82U A111G A145G C150A C169G U176A	0.0194
C82U A111G A145G C150A C169G U176G	0.00543
C82U A111G C169G U176G	0.00463
C82U A111G C169G U176A	0.0159
C82U A111G C169G U176C	0.0183
C82U A111G A145C C150A U176A	0.0156

Variant	reverse-splicing fitness
C82U A111G A145C C150A U176C	0.0142
C82U A111G A145C C150A U176G	0.00788
C82U A111G C150G	0.0267
C82U A111G C150U	0.224
C82U A111G C150A	0.0385
C82U A111G A145U C150U U176G	0.0347
C82U A111G A145U C150U U176A	0.123
C82U A111G A145U C150U U176C	0.172
C82U A111G A145C C150G U176G	0.00329
C82U A111G A145C C150G U176C	0.0249
C82U A111G A145C C150G U176A	0.0112
C82U A111G A145U C150A C169A U176C	0.00854
C82U A111G A145U C150A C169A U176G	0.00532
C82U A111G A145U C150A C169A U176A	0.0129
C82U A111U A120C A145C C150A C169A U176G	0.00538
C82U A111U A120C A145C C150A C169A U176C	0.0057
C82U A111U A120C A145C C150A C169A U176A	0.00878
C82U A111G A145G C150U C169G U176A	0.0169
C82U A111G A145G C150U C169G U176G	0.00547
C82U A111G A145G C150U C169G U176C	0.0174
C82U A111G A145U C150U C169U U176C	0.0118
C82U A111G A145U C150U C169U U176A	0.0117
C82U A111G A145U C150U C169U U176G	0.0051
C82U A111G A145G C150U C169A	0.00982

Variant	reverse-splicing fitness
C82U A111G A145G C150U C169G	0.00979
C82U A111G A145G C150U C169U	0.0111
C82U A111G A145C C150G C169U	0.00804
C82U A111G A145C C150G C169G	0.00679
C82U A111G A145C C150G C169A	0.00744
C82U A111G A145C C150A C169A	0.0083
C82U A111G A145C C150A C169G	0.0066
C82U A111G A145C C150A C169U	0.00807
C82U A111U A120C A145C	0.0238
C82U A111G A145G C169U U176G	0.0046
C82U A111G A145G C169U U176C	0.0129
C82U A111G A145G C169U U176A	0.0117
C82U A111G A145G C169G U176A	0.02
C82U A111G A145G C169G U176C	0.0236
C82U A111G A145G C169G U176G	0.00438
C82U A111U	0.327
C82U A111G A120U U176G	0.00489
C82U A111G A120U U176C	0.0192
C82U A111G A120U U176A	0.011
C82U A111G A145G C169A U176G	0.00491
C82U A111G A145G C169A U176A	0.0185
C82U A111G A145G C169A U176C	0.022
C82U A111G A145C U176C	0.242
C82U A111G A145C U176A	0.178

Variant	reverse-splicing fitness
C82U A111G A145C U176G	0.0614
C82U A111U A120C A145C C150A C169G	0.00632
C82U A111U A120C A145C C150A C169U	0.0102
C82U A111U A120C A145C C150A C169A	0.00749
C82U A111G A145G C150G C169A	0.00883
C82U A111G A145G C150G C169G	0.007
C82U A111G A145G C150G C169U	0.00891
C82U A111G A145U C150G C169U	0.00901
C82U A111G A145U C150G C169G	0.00642
C82U A111G A145U C150G C169A	0.00869
C82U A111G A120U C150G C169A	0.00636
C82U A111G A120U C150G C169G	0.00572
C82U A111G A120U C150G C169U	0.004
C82U A111G A120U C150U C169A U176G	0.00203
C82U A111G A120U C150U C169A U176C	0.00318
C82U A111G A120U C150U C169A U176A	0.00365
C82U A111G A120U C150G U176A	0.00422
C82U A111G A120U C150G U176C	0.0053
C82U A111G A120U C150G U176G	0.00216
C82U A111G A145C C150U C169A	0.00735
C82U A111G A145C C150U C169G	0.00755
C82U A111G A145C C150U C169U	0.00947
C82U A111G A145G C150A C169G	0.0093
C82U A111G A145G C150A C169A	0.0102

Variant	reverse-splicing fitness
C82U A111G A145G C150A C169U	0.01
C82U A111G A145G C150U U176A	0.135
C82U A111G A145G C150U U176G	0.0312
C82U A111G A145G C150U U176C	0.193
C82U A111G A120U C169U U176G	0.0017
C82U A111G A120U C169U U176C	0.00442
C82U A111G A120U C169U U176A	0.00282
C82U A111G A145U	0.462
C82U A111G A145C	0.406
C82U A111G A145G	0.433
C82U A111U A120C	0.0288
C82U A111G A145C C169A U176A	0.00798
C82U A111G A145C C169A U176C	0.00406
C82U A111G A145C C169A U176G	0.00408
C82U A111G A120U C150U	0.0236
C82U A111G A120U C150A	0.00814
C82U A111G A120U C150G	0.00763
C82U A111G C150G U176C	0.0178
C82U A111G C150G U176G	0.00391
C82U A111G C150G U176A	0.00888
C82U A111G A145U C150U C169A	0.00819
C82U A111G A145U C150U C169G	0.00858
C82U A111G A145U C150U C169U	0.0088

From the RNAGym collection of RNA variant scans (doi:10.1093/molbev/msab373)
